From US20160215067A1 (CASE WESTERN RESERVE UNIVERSITY, published 2016)

Assays:
[1] = target: anti-CEP humanized antibody (anti-CEP huAb), full length; assay: competitive ELISA, CEP-BSA coated, inhibitor preincubated with anti-CEP huAb
[2] = target: anti-CEP humanized antibody (anti-CEP huAb), full length; assay: competitive ELISA, CEP-BSA coated
[3] = target: T1, CEP-modified human serum albumin (CEP-HSA) (human, UniProt P02768 25-609, 2-(omega-carboxyethyl)pyrrole (CEP) derivatives of primary amino groups; sites and number not stated); assay: BIAcore, CEP-HSA on chip
T1 construct: The antibodies recognise the CEP hapten on the carrier protein

[4] = target: T1, CEP-modified human serum albumin …; assay: BIAcore 3000, CEP-HSA immobilized on CM5 chip, single-cycle kinetics, bivalent fit
Description: (§1) The binding affinity of each antibody was measured using BIAcore technology.

[5] = target: T1, CEP-modified human serum albumin …; assay: BIAcore SPR, single-cycle kinetics; CEP-HSA immobilised as ligand, antibody as analyte [panel B, table under the sensorgram]
Description: as §1

[6] = target: T1, CEP-modified human serum albumin …; assay: BIAcore single-cycle kinetic analysis
[7] = target: T1, CEP-modified human serum albumin …; assay: BIAcore SPR, single-cycle kinetics; CEP-HSA immobilised as ligand, antibody as analyte [table under the sensorgram]
[8] = target: T1, CEP-modified human serum albumin …; assay: BIAcore SPR, single-cycle kinetics; CEP-HSA immobilised as ligand, antibody as analyte [panel A, table under the sensorgram]
Description: as §1

## CPP-HSA (from UniProt P02768 25-609)
[1]
  IC50: 10.5 µM

## CEP-modified human serum albumin (CEP-HSA) (from UniProt P02768 25-609)
[1]
  IC50: 0.0056 µM

## CHP-BSA (from UniProt P02769 25-607)
[2]
  fold lower cross-reactivity than with anti-CEP mumAb: < 10 fold
[1]
  IC50: 4690 µM

B1: anti-CEP humanized antibody (anti-CEP huAb), full length (antibody, human IgG1, V domains shown)
VH: QVQLVQSGAEVKKPGASVKVSCKASGYAFTKYGMDWVRQAPGQGLEWMGRINTYTGEPTYADDFKGRVTITADTSTSTAYMELSSLRSEDTAVYYCARRRDGYPFAYWGQGTLVTVSS
VL: DIVMTQSPDSLAVSLGERATINCKASQDVSTAVAWYQQKPGQPPKLLIYSASYRFPGVPDRFSGSGSGTDFTLTISSLQAEDVAVYYCHQHYFIPYTFGGGTKLEIK
notes: Human IgG1 heavy constant region (vector pFUSE-CHIg-hG1) and human kappa constant region (pFUSE2-CLIg-hk); expressed in CHO-S cells, clone A1; also called original anti-CEP huAb; anti-CEP humAb
[3]
  fold weaker affinity than anti-CEP mumAb: ~10 fold
[4]
  Kd: 0.00158 µM
[5]
  koff: 0.00025 s⁻¹
  kon: 159000 M⁻¹ s⁻¹

B2: Mutant 2F1, full length anti-CEP huAb mutant (antibody, V domains shown)
VH: QVQLVQSGAEVKKPGASVKVSCKASGYALTKYGMDWVRQAPGQGLEWMGRINTYTGEPTYADDFKGRVTITADTSTSTAYMELSSLRSEDTAVYYCARRRGGYPFAYWGQGTLVTVSS
VL: DIVMTQSPDSLAVSLGERATINCKASQDVSTAVAWYQQKPGQPPKLLIYSASYRFPGVPDRFSGSGSGTDFTLTISSLQAEDVAVYYCHQHYFIPYTFGGGTKLEIK
[6]
  Kd: 0.00074 µM
  fold stronger affinity than original anti-CEP huAb: ~2 fold
[7]
  koff: 0.000228 s⁻¹
  kon: 308000 M⁻¹ s⁻¹

B3: anti-CEP murine monoclonal antibody (anti-CEP mumAb), hybridoma clone 2D3.3G9-1 (antibody, mouse IgG2a, V domains shown)
VH: QIQLIQSGPELKKPGETVKISCKPSGYAFTKYGMDWVKQAPGEGLKWMGRINTYTGEPTYADDFKGRFAFSLEASASTAYLQINNLKNEDTATYFCARRRDGYPFAYWGQGTLVTVSS
VL: DIVMTQSHKFMSTSVRDRVSITCKASQDVSTAVAWYQQKPGQSPKILIYSASYRFPGVPDRFTGSGSGTDFTFTISSVQAEDLAVYYCHQHYFIPYTFGGGTKLEIK
notes: also called murine anti-CEP mAb; mouse counterpart
[4]
  Kd: 0.00016 µM
[8]
  koff: 0.00377 s⁻¹
  kon: 2.36e+07 M⁻¹ s⁻¹
